# Laboratory results reported in patent US20150376264A1.
# Values joined by “and” are separate entries in the source; they are usually repeats but may differ in a detail not shown here. Identical values can stand only once. Like-named read-outs stand apart in the source and are kept apart here.
# Legend:
# Assay in all cases: cell-based or functional assay
# relaxin receptor (LGR7) [1] = target: relaxin receptor (LGR7)
# relaxin receptor (LGR7) [2] = target: relaxin receptor (LGR7); remark: listed apart in the source
# Leptin receptor = target: Leptin receptor
substance,measurement,setting,value
Relaxin-2 (ligand),Fluorescence reading (luciferase assay) at 0.000000481 uM,relaxin receptor (LGR7) [1],1440 and 480 and 560
same,Fluorescence reading (luciferase assay) at 0.00000144 uM,relaxin receptor (LGR7) [1],2880 and 2160 and 1280
same,Fluorescence reading (luciferase assay) at 0.00000433 uM,relaxin receptor (LGR7) [1],4400 and 2400
same,Fluorescence reading (luciferase assay) at 0.000013 uM,relaxin receptor (LGR7) [1],10800 and 8960 and 9840
same,Fluorescence reading (luciferase assay) at 0.0000389 uM,relaxin receptor (LGR7) [1],12100 and 7120 and 12800
same,Fluorescence reading (luciferase assay) at 0.000117 uM,relaxin receptor (LGR7) [1],18500 and 18200
same,Fluorescence reading (luciferase assay) at 0.00035 uM,relaxin receptor (LGR7) [1],21500 and 19100
same,Fluorescence reading (luciferase assay) at 0.001051 uM,relaxin receptor (LGR7) [1],29000 and 26800
same,Fluorescence reading (luciferase assay) at 0.003153 uM,relaxin receptor (LGR7) [1],23300 and 23700
same,Fluorescence reading (luciferase assay) at 0.00035 uM,relaxin receptor (LGR7) [2],14600
same,Fluorescence reading (luciferase assay) at 0.003153 uM,relaxin receptor (LGR7) [2],24500
same,Fluorescence reading (luciferase assay) at 0.00946 uM,relaxin receptor (LGR7) [2],30200 and 24900 and 28500
human leptin (R&D) (from UniProt P41159 22-167) (ligand),"EC50 (Baf3-LepR cell proliferation, AlamarBlue)",Leptin receptor,0.352 nM
same,Fluorescent reading (AlamarBlue) at 0.01 pg/ml (6.25E-08 nM),Leptin receptor,2500 and 2520
same,Fluorescent reading (AlamarBlue) at 0.1 pg/ml,Leptin receptor,1700
same,Fluorescent reading (AlamarBlue) at 0.1 pg/ml (6.25E-07 nM),Leptin receptor,2010
same,Fluorescent reading (AlamarBlue) at 10 pg/ml,Leptin receptor,924
same,Fluorescent reading (AlamarBlue) at 10 pg/ml (6.25E-05 nM),Leptin receptor,2110
same,Fluorescent reading (AlamarBlue) at 100 pg/ml (6.25E-03 nM),Leptin receptor,725 and 1740
same,Fluorescent reading (AlamarBlue) at 1000 pg/ml (0.0625 nM),Leptin receptor,7000 and 5190
same,Fluorescent reading (AlamarBlue) at 10000 pg/ml (0.625 nM),Leptin receptor,26000 and 16500
same,Fluorescent reading (AlamarBlue) at 100000 pg/ml (6.25 nM),Leptin receptor,29000 and 15300
same,Fluorescent reading (AlamarBlue) at 1000000 pg/ml (62.5 nM),Leptin receptor,33500 and 26400
same,Fluorescent reading (AlamarBlue) at 10000000 pg/ml (6250 nM),Leptin receptor,38300 and 32400
